This experiment concerns the target TRAIL-R2 (human) (UniProt O14763). The experiment in a line: cell-based or functional assay.

Sequence of TRAIL-R2 (human) (O14763 other isoform, or with tags, fused parts or gaps limits assumed): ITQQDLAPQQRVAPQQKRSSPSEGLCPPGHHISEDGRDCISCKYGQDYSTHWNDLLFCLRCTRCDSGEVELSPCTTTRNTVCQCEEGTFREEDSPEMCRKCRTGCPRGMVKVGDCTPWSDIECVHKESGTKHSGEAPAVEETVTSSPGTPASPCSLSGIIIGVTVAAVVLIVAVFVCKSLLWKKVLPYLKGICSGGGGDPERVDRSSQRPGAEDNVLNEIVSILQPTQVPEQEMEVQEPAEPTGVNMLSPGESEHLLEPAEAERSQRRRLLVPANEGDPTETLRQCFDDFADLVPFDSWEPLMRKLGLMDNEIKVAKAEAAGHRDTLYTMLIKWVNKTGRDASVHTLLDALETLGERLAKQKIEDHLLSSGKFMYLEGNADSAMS

Consider TRA-8 (antibody), for which the cell death (ATPLITE cell viability assay) was 100%.
